# Laboratory results reported in paper PMC5691656 (Viruses, 2017).
# No end group written: not given here.
# T1: Canarypox virus CNP058 lacking the C-terminal transmembrane domain (residues 1–143) (canarypox virus, UniProt Q6VZT9 1-143)
# T1 sequence: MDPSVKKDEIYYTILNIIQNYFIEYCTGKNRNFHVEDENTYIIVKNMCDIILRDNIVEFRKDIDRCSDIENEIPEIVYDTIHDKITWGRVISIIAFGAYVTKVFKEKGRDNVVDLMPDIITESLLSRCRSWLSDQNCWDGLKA
# Key:
# Noxa BH3 (Homo sapiens) = Noxa BH3 (Homo sapiens) (UniProt Q13794); experiment: ITC; details: cited from earlier work
# Noxa BH3 (Homo sapiens), sequence (Q13794 18-43): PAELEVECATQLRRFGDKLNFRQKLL
# CNP058 = CNP058 (Canarypox virus, UniProt Q6VZT9); experiment: biochemical; assay type: binding
# [1] = target: T1, Canarypox virus CNP058 lacking the …; experiment: ITC; details: both partners purified
# FPV039, sequence (Q9J5G4 whole entry): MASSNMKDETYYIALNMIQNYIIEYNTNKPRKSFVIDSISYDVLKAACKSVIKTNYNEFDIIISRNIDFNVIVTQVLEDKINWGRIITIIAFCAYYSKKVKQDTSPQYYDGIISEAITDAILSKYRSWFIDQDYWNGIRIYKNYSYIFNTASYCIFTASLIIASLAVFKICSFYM
Molecule,Kd [1],other results
FPV039 (from UniProt Q9J5G4),–,Kd (Noxa BH3 (Homo sapiens)): 0.028 µM
PEVNEAIVRTIAAQLAEIGDQLDKQIKAKVVNDL [GG_Bid],–,Kd (CNP058): 0.05 µM
VPQDASTKKLSECLKRIGDELDSNMELQ [Homo sapiens Bax BH3 domain peptide (residues 50-77)],0.326 µM,–
EARTEVQIARKLQCIADQFHRLHIQR [Gallus gallus Bmf BH3 domain peptide (residues 135-160)],0.294 µM,–
EEQWAREIGAQLRRMADDLNAQYERR [Homo sapiens Puma BH3 domain peptide (residues 130-155)],2.48 µM,–
PEVNEAIVRTIAAQLAEIGDQLDKQIKAKVVNDL [Gallus gallus Bid BH3 domain peptide (residues 77-110)],0.05 µM,–
"ERDAVAECALELRRIGDKADLQQKVL (Noxa, Gallus gallus, BH3 domain peptide; source: synthetic peptide (Mimotopes)) [Gallus gallus Noxa BH3 domain peptide]",3.28 µM,–
